Test results: the supplement of paper PMC10126150
± gives the standard deviation of the averaged measurements.

What follows are sequences tested on ATP (assay: switch fluorescence ratio, 500 uM ATP over buffer (Cy3 cluster intensity, sum of 5 cycles each) (fold (ratio)); higher = stronger signal-on switching upon ATP binding; sequences stand for … in TCGTCGGCAGCGTCAGATGTGTATAAGAGACAGTTTTTTTTTTTTTTTTTTTTTTTTT…TC). Conditions: aptamer strand: ATP DNA aptamer (quencher-CACCTGGGGGAGTATTGCGGAGGAAGG + anchor), 100 nM annealed; ATP concentration: 500 uM.
Method in brief: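 Cy3-labelled switching-strand clusters on a modified Illumina MiSeq flow-cell were annealed to 100 nM quencher-labelled ATP aptamer, imaged in selection buffer, then imaged after 15 min with 500 uM ATP at 22 °C. Five buffer/ATP cycles ran, with NaOH stripping and re-annealing between them. The fluorescence ratio is summed target-cycle over summed buffer-cycle Cy3 intensity per cluster, averaged per switch-domain sequence. Clusters outside 100-1000 RFU were excluded.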
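Further: ATP exposure 15 min at 22 °C before imaging.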

Sequence	switch fluorescence ratio
TACTGGTTGG	1 ± 0.021
TAGCGGTTGG	1.022 ± 0.0053
TTTTAAAGGA	1 ± 0.023
GGGAGCGTTT	0.981 ± 0.046
TCTCGTCTCT	1.04 ± 0.028
ACTGACTCA	1.23 ± 0.048
TGTAACGGGA	1.01 ± 0.018
TTGTCCTGTG	1.02 ± 0.036
GGGTAGTTCA	1.009 ± 0.0069
TCTTGCTCGT	1.02 ± 0.0014
AAAGAAGACG	1.0319 ± 0.00064
TTGGGGATTA	1.09 ± 0.18
TAGATCGCTG	0.931 ± 0.028
AGTTCTGGCC	1.03 ± 0.068
ATGTCAAAGC	0.984 ± 0.063
ATGCCATTAG	0.967 ± 0.02
AGATGGTGGG	1 ± 0.025
TGATGCATAA	1.04 ± 0.034
TAGTTATGAA	1.01 ± 0.016
GCATTGAGTG	0.978 ± 0.03
ATTTCTATCC	1.09 ± 0.12
CTGAGCAAG	2.34 ± 0.28
CAGGTGCGGG	1.1694 ± 0.0009

Sequence	switch fluorescence ratio
CTGTGGGGAT	0.961 ± 0.014
TTCTGGCATG	1.09 ± 0.099
CGGGTGTGGA	1.05 ± 0.04
CATTGCATTT	1.3 ± 0.4
CCTAAGGGGG	1.04 ± 0.074
ATGTTGATAC	1.07 ± 0.0013
GACAGTGTGG	0.997 ± 0.049
ATTGGAACGC	1.03 ± 0.012
CGGGGGAGTC	1.02 ± 0.027
TTTTAGAGGA	0.9736 ± 0.0013
GATAGGGGCG	0.998 ± 0.026
CTTGAATGTG	1 ± 0.013
AAGCACCGGG	1.08 ± 0.085
ATGTTGTCTC	1.001 ± 0.0079
GTCAGGGGGG	1.02 ± 0.081
ATTAGTCCGA	0.9917 ± 0.0089
TTCGTTTCGT	0.995 ± 0.014
ATACTCTATT	1.07 ± 0.025
GTGTTATTTT	0.998 ± 0.053
GTGCGTCTTT	1.01 ± 0.041
ACTAGGGGAC	1.06 ± 0.085
TGGTTTCATT	1.01 ± 0.017
GGTCAAGCTG	1 ± 0.044

Sequence	switch fluorescence ratio
AGTGGCAGTG	1 ± 0.022
CAGGAGGAGA	1.025 ± 0.01
GAGGCAGCGA	1.3 ± 0.016
AGGGTTGACA	0.981 ± 0.046
TGCATGCAGG	1.02 ± 0.015
AGGTGCATAC	1.45 ± 0.32
GATTAAAGGT	1.01 ± 0.025
AGAGTATTAG	1 ± 0.013
ACTGTGTGGC	0.992 ± 0.012
CATGCGGCTA	1.05 ± 0.044
GGGGATTTAT	0.997 ± 0.019
GCCAAATTTT	0.955 ± 0.035
TATTTGGTT	0.991 ± 0.024
GGTATTGGGG	1.03 ± 0.034
CCGGAAGAGA	1.09 ± 0.035
GAAGCAAAGG	2.04 ± 0.074
TCGCGAAGGG	1.01 ± 0.013
CACGGAGCAG	2.52 ± 0.15
CAAGCGGGGG	1.01 ± 0.05
GTGGAAGAGT	0.999 ± 0.018
TGAGTTTCGG	0.9869 ± 0.0098
GAAGCTTTTT	1 ± 0.047
TGAGTGGACC	0.992 ± 0.047

Sequence	switch fluorescence ratio
TCCTGGGGGA	1.15 ± 0.22
TCGGGGTTGT	1.01 ± 0.087
GTTGGTACGT	1.01 ± 0.03
TCGTCATTGC	1.22 ± 0.037
GCTCTCAGGT	1.12 ± 0.043
GGTGCATGGC	1.04 ± 0.04
GTGAGGCGCT	1.03 ± 0.011
GGGTGTTGAC	0.993 ± 0.018
TCGGTCCAGG	1.39 ± 0.14
AAATTATTTC	0.989 ± 0.033
CACTGTAACC	1.19 ± 0.072
GCTGGAGGAA	1.07 ± 0.018
ATGTTCGGGC	1.04 ± 0.035
ATGTTGGCGT	1 ± 0.011
ATCAAAGAAC	1.05 ± 0.042
CGGTCTGTTC	0.994 ± 0.052
CGGGTGTAGT	1.03 ± 0.024
GACTATTGTT	1 ± 0.015
AAGGGTTTGT	0.986 ± 0.017
TACCAGTGAT	1 ± 0.018
AAAATTTTGC	1.12 ± 0.2
CGAAAAATAG	0.985 ± 0.043
TGCTAGCCTC	0.9724 ± 0.004

Sequence	switch fluorescence ratio
ACTTAGTCTA	1.023 ± 0.0066
ACTCTTATAA	1.048 ± 0.0059
TGTGTCCTAA	1.03 ± 0.026
GGAGGATACG	1.02 ± 0.025
CACGGGGTTT	0.954 ± 0.011
AGATCTACAT	1.01 ± 0.016
TCTTACTGGG	0.997 ± 0.018
CGAATCAAAC	1.52 ± 0.032
TTTTGGACTC	1.007 ± 0.006
CTCCAGACGA	1.47 ± 0.083
TCAAGTTTTG	0.972 ± 0.015
GCGGTTTCGT	0.983 ± 0.012
GATGGTTAGT	0.974 ± 0.036
TTGCTGGGGT	1.01 ± 0.044
CCAGCTGTAT	1.04 ± 0.0024
AAGGCGAGCT	0.992 ± 0.01
TAGGTTTCTT	1.01 ± 0.031
GGGTTAAGCT	0.989 ± 0.029
CAGGAAAGCA	0.994 ± 0.031
TTAAGCGGCC	1.067 ± 0.0072
GGTGGGACGG	0.991 ± 0.039
ATGTGTGGGA	1.029 ± 0.0019
GATGGGAAAA	1.01 ± 0.021

Sequence	switch fluorescence ratio
ATCAGGGGGA	0.997 ± 0.02
TAGTGCAATA	1.6994 ± 0.00043
AGGGTCAATG	0.983 ± 0.013
CTTTGAAGGA	0.992 ± 0.03
CTAATAGTGC	1.016 ± 0.0021
AATTGAAAAT	0.967 ± 0.0073
ACTAGGAAAA	0.997 ± 0.011
TTGGGAGGTT	0.968 ± 0.025
TCGTAGGGTC	0.982 ± 0.047
GCTATAGGGA	0.957 ± 0.014
TTTGAAGTCT	0.978 ± 0.09
GAGGCGTTGC	1.06 ± 0.05
TTACGAAGGG	1.012 ± 0.0045
CTGGCAGGGC	1.07 ± 0.016
ATCGAAGAGG	0.995 ± 0.048
GGGATAAAGG	0.993 ± 0.035
CGTCCGAAGT	2.03 ± 0.18
GCGATTTTTG	0.986 ± 0.041
TATTTTTAGG	1 ± 0.032
CGCAGGCACG	1.07 ± 0.052
CATGGGAAGT	1.01 ± 0.035
GAGCATATTG	1.03 ± 0.03
TGCGTGGCGG	1.02 ± 0.037

Sequence	switch fluorescence ratio
GAGAGGTGTT	1.06 ± 0.039
CGTCGGGGAA	1.02 ± 0.027
GCTTCTTTGT	0.9984 ± 0.0058
TTAGGACGGC	0.876 ± 0.02
ATGTGTTTTT	0.98 ± 0.036
TAAGAAAGGG	0.9572 ± 0.0095
CCAAGCGGTA	1.3 ± 0.026
GGTGTAGGT	0.986 ± 0.022
AAGTAGGTAG	0.9786 ± 0.002
TCCCGGGTAT	0.9787 ± 0.0073
CGATGGTGTT	1.01 ± 0.035
TAGGGGTGGC	0.956 ± 0.099
GCGAAAAAGC	0.978 ± 0.046
GGGCACGAAG	1 ± 0.013
ACTTGGGGGG	0.994 ± 0.012
TACCCTTGCC	1.22 ± 0.25
ACTTTTGGGT	0.9602 ± 0.0088
GACATTAGTC	0.99 ± 0.011
GGAAGGGCGG	1.01 ± 0.048
